The values that follow come from paper PMC11903869, “Structure and function of the geldanamycin amide synthase from Streptomyces hygroscopicus” (Nature Communications, 2025).

Data set [1] concerns the target T1, GdmF (Streptomyces hygroscopicus, UniProt Q84G21).
T1 construct: full-length GdmF, N-terminal histidine hexamer
As to the kind of experiment: X-ray crystal structure (cleaved group from pantetheine thioesters). Format: binding.

Data set [2] deals with T1, GdmF. As to the kind of experiment: microscale thermophoresis. Format: binding. A general note: Microscale thermophoresis detects binding through changes in fluorescence in a small temperature gradient.
Data set [3] deals with T1, GdmF. The data set can be described thus: X-ray crystal structure (cleaved group from SNAC thioesters). Format: binding.
Substrate in data set [4]: CC(=O)SCCNC(=O)CCNC(=O)[C@H](O)C(C)(C)CO
The data set can be described thus: purified protein, by the assay type. Further details: Steady-state amide formation, thiol release from thioesters monitored with DTNB at 405 nm, 22 °C; kcat: unit: s^-1. Conditions: pH 7.5; 22.0 °C. The procedure: (§1) The enzymatic activity of ShGdmF was measured by monitoring the release of free thiols with 5,5’-dithio-bis(2-nitrobenzoic acid) (DTNB) at 405 nm in 100 mM sodium phosphate buffer, pH 7.5. 2 µM ShGdmF was pre-incubated with 2 mM aminophenol 32 or 33 and 100 µM DTNB at 22 °C for 5 min in a 96-well plate before increasing concentrations of thioester 11a-c or 13a-c were added to each well. Measurements were performed using a Multiskan FC Microplate Photometer (Thermo Fisher Scientific) at 22 °C. Each measurement was performed in triplicate. […] The enzyme is able to catalyze the amide synthesis of SNAC and pantetheine thioesters directly in vitro and in the absence of the cellular environment (Fig. 6e + 6f). The kinetic parameters KM of GdmF for substrate conversion range from submillimolar to millimolar at maximum rates (kcat) of 0.001 to 0.02 s^−1. […] For the SNAC thioesters, an increase in kcat/KM with increasing chain length was observed, whereas in the case of the pantetheine thioesters, a decrease in catalytic efficiency with longer acyl substrates was observed. In terms of kcat values, the activity of GdmF is similar to that of the related MsNAT.

Substrate in data set [5]: C/C=C/C(=O)SCCNC(C)=O
The data set can be described thus: purified protein, by the assay type. Conditions: pH 7.5; 22.0 °C. More on the design: Steady-state amide formation, thiol release from thioesters monitored with DTNB at 405 nm, 22 °C; kcat: unit: s^-1. The procedure:
as §1

Substrate in data set [6]: CC/C=C/C(=O)SCCNC(=O)CCNC(=O)[C@H](O)C(C)(C)CO
The data set can be described thus: purified protein, by the assay type. More on the design: Steady-state amide formation, thiol release from thioesters monitored with DTNB at 405 nm, 22 °C; kcat: unit: s^-1. Conditions: pH 7.5; 22.0 °C. The procedure:
as §1

Substrate in data set [7]: C/C=C(\C)C(=O)SCCNC(C)=O
As to the kind of experiment: purified protein, by the assay type. Further details: Steady-state amide formation, thiol release from thioesters monitored with DTNB at 405 nm, 22 °C; kcat: unit: s^-1. Conditions: pH 7.5; 22.0 °C. The procedure:
as §1

Substrate in data set [8]: CC(=O)SCCNC(=O)CCNC(=O)[C@H](O)C(C)(C)CO
As to the kind of experiment: purified protein, by the assay type. More on the design: Steady-state amide formation, thiol release from thioesters monitored with DTNB at 405 nm, 22 °C; kcat: unit: s^-1. Conditions: pH 7.5; 22.0 °C. The procedure: as §1
This is another data set of the same source.

Substrate in data set [9]: C/C=C/C(=O)SCCNC(C)=O
The data set can be described thus: purified protein, by the assay type. Further details: Steady-state amide formation, thiol release from thioesters monitored with DTNB at 405 nm, 22 °C; kcat: unit: s^-1. Conditions: pH 7.5; 22.0 °C. The procedure:
as §1
The source holds these as a separate data set.

Substrate in data set [10]: CC/C=C/C(=O)SCCNC(=O)CCNC(=O)[C@H](O)C(C)(C)CO
The data set can be described thus: purified protein, by the assay type. Further details: Steady-state amide formation, thiol release from thioesters monitored with DTNB at 405 nm, 22 °C; kcat: unit: s^-1. Conditions: pH 7.5; 22.0 °C. The procedure: as §1
The source holds these as a separate data set.

Substrate in data set [11]: C/C=C(\C)C(=O)SCCNC(C)=O
As to the kind of experiment: purified protein, by the assay type. Conditions: pH 7.5; 22.0 °C. More on the design: Steady-state amide formation, thiol release from thioesters monitored with DTNB at 405 nm, 22 °C; kcat: unit: s^-1. The procedure: as §1
The source holds these as a separate data set.

In the case of `CC(C)(CO)[C@@H](O)C(=O)NCCC(=O)NCCS` [pantetheine], the “X-ray crystal structure (cleaved group from pantetheine thioesters)” value at GdmF [1] was “Crystal structure of GdmF with bound pantetheine, and (b) N-acetylcysteamine (SNAC) in the active site cleft”.

In turn, `C/C=C(\C)C(=O)SCCNC(C)=O` [11b, SNAC ester 11b] came in with a Kd at GdmF [2] of 1160 µM.

As for `CC(=O)NCCS` [N-acetylcysteamine], on GdmF [3], the “X-ray crystal structure (cleaved group from SNAC thioesters)” value is recorded as “we found densities for the cleaved SNAC or pantetheine groups, instead”.

Molecule `CC(=O)SCCNC(=O)CCNC(=O)[C@H](O)C(C)(C)COP(=O)(O)OP(=O)(O)OC[C@H]1O[C@@H](n2cnc3c(N)ncnc32)[C@H](O)[C@@H]1OP(=O)(O)O` [compound 5, acetyl-CoA] displayed a Kd at GdmF [2] of 2960 µM.

B1: GdmF (Streptomyces hygroscopicus) (protein)
chain: MFDVAKYLRRIGVEGTPPPTLDTLRHLHKRHLMAVPYDNSTAPDRLPASRHLTNVPLDLVFGHVVTEGHGGVCYELNRLFHTLLAELGYDVRMVAAAVRQANGTFGPEREHTFDLVHLDGRTHLVDVGFPGPSYSEPLYLSEEEQHQYGCSYRVTEHDGYRVVERRPKGSDWQPVYRFRPELADPSGWDAVRLDSLDDYAQDSVLAGTTFRSRATDNGKIVLIGRRYFTVEDGVERTKVLVKADEFQDVVDLILAGA
notes: full-length GdmF, N-terminal histidine hexamer
On to B1, for which the Km is 6.4136 ± 2.0704 mM in data set [4]; 0.8581 ± 0.2327 mM in data set [5]; 1.1368 ± 0.1369 mM in [6]; 2.735 ± 0.6103 mM in data set [7]; 3.6483 ± 2.8127 mM in data set [8]; 1.8651 ± 0.2537 mM in data set [9]. Moreover, the Km was 8.2677 ± 1.6107 mM in data set [10] and 6.9024 ± 4.1426 mM in data set [11]. Also, the kcat stood at 0.0164 ± 0.0039 s⁻¹ in data set [4]; 0.0016 ± 0.00019 s⁻¹ in data set [5]; 0.0027 ± 0.00013 s⁻¹ in [6]; 0.0071 ± 0.0007 s⁻¹ in [7]; 0.0075 ± 0.0051 s⁻¹ in data set [8]; 0.0032 ± 0.00026 s⁻¹ in [9]. Further, the kcat in data set [10] stood at 0.0084 ± 0.0013 s⁻¹; in data set [11] it was 0.012 ± 0.0058 s⁻¹. Moreover, the kcat/Km in data set [4] was 2.56 M⁻¹ s⁻¹; in data set [5] it was 1.87 M⁻¹ s⁻¹; in data set [6] it was 2.37 M⁻¹ s⁻¹; in data set [7] it was 2.6 M⁻¹ s⁻¹; in [8] it was 2.06 M⁻¹ s⁻¹; in [9], 1.72 M⁻¹ s⁻¹. The kcat/Km in data set [10] was found to be 1.02 M⁻¹ s⁻¹; in data set [11], 1.74 M⁻¹ s⁻¹.

For orientation: Kd means a measure of binding affinity in units of concentration. The Km is the substrate concentration at which the rate is half of its maximum. A word on the kcat: it is the number of substrate molecules converted per active site and unit of time at saturation. Broadly, the kcat/Km is the second-order rate constant that governs catalysis at low substrate concentration.
